In the supplement of paper PMC9112550, “Optimization of the antimicrobial peptide Bac7 by deep mutational scanning” (BMC Biology, 2022):

What follows are sequences tested on Escherichia coli TOP10 (assay: shrunken log2 fold change of peptide-encoding DNA abundance (4.5 h post-induction vs induction); higher = less antimicrobial activity (less host growth inhibition)). Details: time post-induction: 4.5 h; library: site-saturation at positions 5, 18, 19, 20.
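Note: peptides expressed intracellularly from a pBAD plasmid library in pooled LB shake-flask culture, induced with 0.3% L-arabinose, DNA abundance read by NGS, three biological replicates, DESeq2 with apeglm shrinkage.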

Sequence | shrunken log2 fold change
RRIRIRPPRLPRPRPRPHIMPRP | -1.41
RRIRWRPPRLPRPRPRPLQQPRP | 0.115
RRIRIRPPRLPRPRPRPGCTPRP | -0.268
RRIRMRPPRLPRPRPRPIMMPRP | -0.00663
RRIRLRPPRLPRPRPRPVRTPRP | 0.175
RRIRIRPPRLPRPRPRPVRGPRP | 0.413
RRIRFRPPRLPRPRPRPIYMPRP | -0.878
RRIRGRPPRLPRPRPRPMKQPRP | 0.316
RRIRERPPRLPRPRPRPAPEPRP | 0.236
RRIRIRPPRLPRPRPRPTLQPRP | 0.00305
RRIRKRPPRLPRPRPRPPETPRP | 0.651
RRIRNRPPRLPRPRPRPLWKPRP | -0.422
RRIRTRPPRLPRPRPRPVRAPRP | 0.514
RRIRDRPPRLPRPRPRPFGYPRP | -0.342
RRIRWRPPRLPRPRPRPGVAPRP | 0.821
RRIRFRPPRLPRPRPRPQGSPRP | -0.0076
RRIRFRPPRLPRPRPRPQNEPRP | -0.603
RRIRQRPPRLPRPRPRPLSWPRP | 0.485
RRIRARPPRLPRPRPRPAIHPRP | -0.223
RRIRFRPPRLPRPRPRPGLFPRP | -0.143
RRIRWRPPRLPRPRPRPPRPPRP | 0.859
RRIRTRPPRLPRPRPRPDWIPRP | -0.0498
RRIRNRPPRLPRPRPRPQEGPRP | 0.0303
RRIRYRPPRLPRPRPRPVSVPRP | -0.0879
RRIRKRPPRLPRPRPRPLLSPRP | 0.523

Sequence | shrunken log2 fold change
RRIRTRPPRLPRPRPRPRCIPRP | 0.0613
RRIRLRPPRLPRPRPRPMEHPRP | -0.00579
RRIRWRPPRLPRPRPRPWLHPRP | -0.0248
RRIRKRPPRLPRPRPRPTMLPRP | 0.131
RRIRCRPPRLPRPRPRPGVTPRP | -0.175
RRIRPRPPRLPRPRPRPDIEPRP | -0.215
RRIRQRPPRLPRPRPRPKQWPRP | 0.293
RRIRGRPPRLPRPRPRPCVEPRP | 0.953
RRIRWRPPRLPRPRPRPVDYPRP | 0.0136
RRIRIRPPRLPRPRPRPKDQPRP | -0.196
RRIRSRPPRLPRPRPRPYQKPRP | -0.122
RRIRRRPPRLPRPRPRPHRIPRP | -0.279
RRIRHRPPRLPRPRPRPQMEPRP | -0.00192
RRIRWRPPRLPRPRPRPEFDPRP | 0.198
RRIRWRPPRLPRPRPRPMQTPRP | 1
RRIRDRPPRLPRPRPRPKSQPRP | 0.231
RRIRCRPPRLPRPRPRPWSKPRP | -0.498
RRIRFRPPRLPRPRPRPKVFPRP | 0.0358
RRIRFRPPRLPRPRPRPHPDPRP | -0.262
RRIRPRPPRLPRPRPRPIFWPRP | 1.25
RRIRKRPPRLPRPRPRPDTMPRP | 0.224
RRIRIRPPRLPRPRPRPFNKPRP | -0.179
RRIRHRPPRLPRPRPRPADFPRP | 0.116
RRIRHRPPRLPRPRPRPSQQPRP | -0.031
RRIRTRPPRLPRPRPRPEKTPRP | 0.051

Sequence | shrunken log2 fold change
RRIRRRPPRLPRPRPRPMTLPRP | -0.142
RRIRCRPPRLPRPRPRPKFDPRP | -0.0305
RRIRNRPPRLPRPRPRPYGHPRP | -0.256
RRIRHRPPRLPRPRPRPTALPRP | 0.0443
RRIRPRPPRLPRPRPRPGSIPRP | -0.261
RRIRKRPPRLPRPRPRPYKLPRP | -0.281
RRIRFRPPRLPRPRPRPWISPRP | -0.456
RRIRTRPPRLPRPRPRPQCGPRP | -0.0173
RRIRRRPPRLPRPRPRPMAMPRP | -0.011
RRIRVRPPRLPRPRPRPIPNPRP | 0.0329
RRIRQRPPRLPRPRPRPATHPRP | -0.28
RRIRFRPPRLPRPRPRPPKFPRP | 0.0968
RRIRRRPPRLPRPRPRPFEPPRP | 0.152
RRIRQRPPRLPRPRPRPGLVPRP | 0.18
RRIRYRPPRLPRPRPRPGYVPRP | -1.05
RRIRFRPPRLPRPRPRPIMQPRP | -0.497
RRIRMRPPRLPRPRPRPNLRPRP | -0.0219
RRIRRRPPRLPRPRPRPWYMPRP | -0.0284
RRIRLRPPRLPRPRPRPNNNPRP | -0.673
RRIRGRPPRLPRPRPRPSTKPRP | 0.261
RRIRCRPPRLPRPRPRPKGRPRP | -0.00803
RRIRARPPRLPRPRPRPMLDPRP | 0.504
RRIRDRPPRLPRPRPRPDCWPRP | 1.65
RRIRRRPPRLPRPRPRPAAYPRP | 0.585
RRIRGRPPRLPRPRPRPHSYPRP | 0.231

Sequence | shrunken log2 fold change
RRIRPRPPRLPRPRPRPKSQPRP | -0.193
RRIRGRPPRLPRPRPRPTARPRP | 1.27
RRIRSRPPRLPRPRPRPDGAPRP | 0.289
RRIRLRPPRLPRPRPRPIMMPRP | -0.0614
RRIRGRPPRLPRPRPRPCWMPRP | 0.301
RRIRPRPPRLPRPRPRPINHPRP | -0.619
RRIRVRPPRLPRPRPRPRFNPRP | -0.264
RRIRVRPPRLPRPRPRPAFAPRP | 0.666
RRIRPRPPRLPRPRPRPPTKPRP | 0.268
RRIRHRPPRLPRPRPRPLWQPRP | -0.145
RRIRFRPPRLPRPRPRPAYFPRP | -0.108
RRIRARPPRLPRPRPRPTYQPRP | -0.163
RRIRWRPPRLPRPRPRPIKSPRP | 0.0589
RRIRGRPPRLPRPRPRPIHLPRP | -0.0773
RRIRSRPPRLPRPRPRPVYPPRP | -0.11
RRIRWRPPRLPRPRPRPQIIPRP | -0.805
RRIRTRPPRLPRPRPRPTLNPRP | 0.569
RRIRTRPPRLPRPRPRPGWPPRP | 0.576
RRIRRRPPRLPRPRPRPTRHPRP | 0.783
RRIRQRPPRLPRPRPRPIYVPRP | 0.0693
RRIRFRPPRLPRPRPRPHWQPRP | -0.119
RRIRGRPPRLPRPRPRPITMPRP | -0.0891
RRIRQRPPRLPRPRPRPGNGPRP | 0.0197
RRIRFRPPRLPRPRPRPPDHPRP | 0.28
RRIRDRPPRLPRPRPRPNEVPRP | 0.0348

Sequence | shrunken log2 fold change
RRIRHRPPRLPRPRPRPTDVPRP | -0.217
RRIRFRPPRLPRPRPRPVQLPRP | -0.189
RRIRYRPPRLPRPRPRPFIMPRP | -0.313
RRIRNRPPRLPRPRPRPWIYPRP | -0.187
RRIRKRPPRLPRPRPRPNDAPRP | 0.0832
RRIRWRPPRLPRPRPRPWRGPRP | 0.389
RRIRIRPPRLPRPRPRPLCRPRP | -0.289
RRIRLRPPRLPRPRPRPLTFPRP | -0.633
RRIRSRPPRLPRPRPRPINMPRP | -0.928
RRIRGRPPRLPRPRPRPVYHPRP | -0.174
RRIRCRPPRLPRPRPRPKEYPRP | -0.207
RRIRNRPPRLPRPRPRPEDIPRP | -0.194
RRIRSRPPRLPRPRPRPMGPPRP | -0.0846
RRIRPRPPRLPRPRPRPYQQPRP | -0.139
RRIRRRPPRLPRPRPRPTWHPRP | 0.429
RRIRQRPPRLPRPRPRPKCCPRP | -0.113
RRIRIRPPRLPRPRPRPCVKPRP | -0.828
RRIRKRPPRLPRPRPRPFTVPRP | -0.00947
RRIRMRPPRLPRPRPRPIIHPRP | -0.136
RRIRHRPPRLPRPRPRPECAPRP | 0.249
RRIRDRPPRLPRPRPRPQRKPRP | 0.0137
RRIRGRPPRLPRPRPRPYICPRP | -0.423
RRIRPRPPRLPRPRPRPPMEPRP | 0.127
RRIRERPPRLPRPRPRPPKIPRP | -0.28
RRIRYRPPRLPRPRPRPVISPRP | 0.0433

Sequence | shrunken log2 fold change
RRIRGRPPRLPRPRPRPCTKPRP | 0.235
RRIRRRPPRLPRPRPRPWYLPRP | -0.313
RRIRTRPPRLPRPRPRPTQCPRP | 0.227
RRIRDRPPRLPRPRPRPKYWPRP | -0.147
RRIRFRPPRLPRPRPRPAMWPRP | 0.0848
RRIRNRPPRLPRPRPRPFCMPRP | -0.45
RRIRSRPPRLPRPRPRPITKPRP | -0.083
RRIRTRPPRLPRPRPRPNSHPRP | -0.015
RRIRSRPPRLPRPRPRPKVYPRP | 0.226
RRIRFRPPRLPRPRPRPPWQPRP | 0.361
RRIRKRPPRLPRPRPRPSFVPRP | -0.174
RRIRHRPPRLPRPRPRPQVCPRP | -0.0115
RRIRFRPPRLPRPRPRPCINPRP | -0.0523
RRIRARPPRLPRPRPRPAQTPRP | 0.057
RRIRSRPPRLPRPRPRPLMSPRP | -0.0126
RRIRTRPPRLPRPRPRPTNWPRP | 0.155
RRIRRRPPRLPRPRPRPKNWPRP | 0.381
RRIRMRPPRLPRPRPRPQPTPRP | 0.868
RRIRWRPPRLPRPRPRPQQNPRP | -0.00819
RRIRRRPPRLPRPRPRPAMYPRP | -0.145
RRIRFRPPRLPRPRPRPIAGPRP | 0.0541
RRIRWRPPRLPRPRPRPALFPRP | 0.496
RRIRCRPPRLPRPRPRPYCPPRP | -0.968
RRIRDRPPRLPRPRPRPRIMPRP | 0.015
RRIRCRPPRLPRPRPRPSGDPRP | -0.195
